One protein from US20030135878 can be followed below.

Data set [1] has as its target T1, Wheat alpha-amylase pI 6.66 inhibitor (spot #1), P01085.
T1 chain: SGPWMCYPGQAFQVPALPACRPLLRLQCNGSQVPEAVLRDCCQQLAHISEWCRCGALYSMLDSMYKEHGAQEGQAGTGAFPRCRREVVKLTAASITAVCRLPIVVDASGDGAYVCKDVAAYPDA

Data set [2] has as its target T2, Wheat alpha-amylase/trypsin inhibitor (spot #3), P16851.
T2 chain: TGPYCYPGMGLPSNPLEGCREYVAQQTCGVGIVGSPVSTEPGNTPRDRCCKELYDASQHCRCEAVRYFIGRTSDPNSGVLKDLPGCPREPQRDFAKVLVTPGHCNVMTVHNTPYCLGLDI

Data set [3] concerns the target wheat gliadin homolog of oat avenin (spot #2).
The target of data set [4] is T3, Wheat alpha-amylase pI 5.23 inhibitor (spot #4), P01084.
T3 chain: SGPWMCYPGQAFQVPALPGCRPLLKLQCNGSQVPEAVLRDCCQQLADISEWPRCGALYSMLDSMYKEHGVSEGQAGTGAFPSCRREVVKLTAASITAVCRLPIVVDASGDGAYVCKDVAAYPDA

B1: wheat thioredoxin h (WTRXh), 13.5-kDa protein encoded by the 384-bp wtrxh fragment (protein)
chain: MAASAATATATAAAVGAGEVISVHSLEQWTMQIEEANAAKKLVVIDFTASWCGPCRIMAPIFADLAKKFPAAVFLKVDVDELKPIAEQFSVEAMPTFLFMKEGDVKDRVVGAIKEELTTKVGLHAAQ
With B1, the “redox state by mBBr/2D IEF/SDS-PAGE, homozygote overexpressing thioredoxin h vs. null segregant” value in data set [1] is on record as “five proteins were observed to be more highly reduced in extracts of the homozygote (spots 1-5, FIG. 29)”; in data set [2], “five proteins were observed to be more highly reduced in extracts of the homozygote (spots 1-5, FIG. 29)”; in data set [3], “five proteins were observed to be more highly reduced in extracts of the homozygote (spots 1-5, FIG. 29)”; in data set [4], “five proteins were observed to be more highly reduced in extracts of the homozygote (spots 1-5, FIG. 29)”.
